The source of these data is patent US20240207432A1 (BIOSION, published 2024).

Like-named read-outs stand apart in the source and are kept apart here.

The target of experiment [1] is T1, full length human TROP2 on 293F-TROP2 cells (human, UniProt P09758 27-323).
T1 construct: also called 293F-TROP2 cells (clone ID #3A8); cell surface TROP2
T1 sequence: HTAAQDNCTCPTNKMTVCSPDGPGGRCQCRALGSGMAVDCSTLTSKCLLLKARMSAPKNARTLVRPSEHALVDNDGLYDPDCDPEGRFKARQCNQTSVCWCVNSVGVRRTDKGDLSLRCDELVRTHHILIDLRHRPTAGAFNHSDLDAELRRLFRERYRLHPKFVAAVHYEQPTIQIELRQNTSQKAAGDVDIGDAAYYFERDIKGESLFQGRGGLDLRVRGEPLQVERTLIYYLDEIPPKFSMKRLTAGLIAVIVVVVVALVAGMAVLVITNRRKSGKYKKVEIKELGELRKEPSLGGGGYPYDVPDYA
Put plainly: FACS on 293F-TROP2 cells, MFI. The procedure:
The binding activity of the mouse anti-TROP2 antibodies to cell surface TROP2 proteins was tested by flow cytometry (FACS), using Biosion in-house prepared 293F-TROP2 cells (clone ID #3A8) stably expressing full length human TROP2s (uniprot #P09758, SEQ ID NO.: 71) on cell membrane. The 293F-TROP2 cells were prepared by transfecting 293F cells (Thermofisher Inc., Cat #11625019) with a pCMV-T-P plasmid inserted with human TROP2 coding sequence between EcoRI and XbaI sites, following the instruction of lipofectamine 3000 transfection reagent (Thermo Fisher).
(§1) The 293F-TROP2 cells were harvested from cell culture flasks, washed twice and re-suspended in phosphate buffered saline (PBS) containing 2% v/v Fetal Bovine Serum (FACS buffer). […] Following an incubation of 40 minutes at 4° C. in dark, cells were washed twice and re-suspended in FACS buffer. Fluorescence was measured using a Becton Dickinson FACS Canto II-HTS equipment, and the MFI (mean fluorescence intensity) was plotted against antibody concentration. Data was analyzed using Graphpad Prism software and EC₅₀ values were reported.

Experiment [2] concerns the target T1, full length human TROP2 on 293F-TROP2 …. Put plainly: FACS on 293F-TROP2 cells, MFI. This is another data set of the same source.
Experiment [3] shares this target. Put plainly: FACS on 293F-TROP2 cells, MFI. The procedure:
as §1
This is another data set of the same source.

In experiment [4] the target is T2, cynomolgus TROP2-his protein (cynomolgus monkey, UniProt P09758 27-272 (human entry), limits assumed).
T2 construct: no cleavage site is stated; also called Cynomolgus monkey TROP2-his protein; monkey TROP2
T2 chain: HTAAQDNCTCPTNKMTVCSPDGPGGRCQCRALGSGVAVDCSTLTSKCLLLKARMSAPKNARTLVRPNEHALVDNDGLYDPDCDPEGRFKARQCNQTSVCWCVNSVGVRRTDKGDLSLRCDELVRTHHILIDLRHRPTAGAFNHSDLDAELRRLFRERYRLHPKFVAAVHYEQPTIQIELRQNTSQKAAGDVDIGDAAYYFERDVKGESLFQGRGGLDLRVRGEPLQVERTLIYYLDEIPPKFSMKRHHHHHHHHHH
Nature of the experiment: indirect ELISA, cynomolgus TROP2-his coated, OD(450-630).

The target of experiment [5] is T2, cynomolgus TROP2-his protein. Put plainly: indirect ELISA, cynomolgus TROP2-his coated at 2 ug/mL, OD(450-630). The procedure: The anti-TROP2 antibodies of the disclosure were tested for their cross-reaction with cynomolgus TROP2 proteins. Briefly, 96-well micro plates were coated with 100 μl 2 μg/ml cynomolgus TROP2-his proteins (prepared in-house with SEQ ID NO: 70) in carbonate/bicarbonate buffer (pH 9.6) overnight at 4° C. ELISA plates were washed once with wash buffer (PBS+0.05% v/v Tween-20, PBST) and then blocked with 200 μl/well blocking buffer (5% w/v non-fatty milk in PBST) for 2 hours at 37° C. […] After a final wash, plates were incubated with 100 μl/well TMB (Innoreagents) at room temperature. The reaction was stopped 3-10 minutes later at room temperature with 50 μl/well 1M H₂SO₄, and the absorbance of each well was read on a microplate reader using dual wavelength mode with 450 nm for TMB and 630 nm as the reference wavelength. The OD (450-630) values were plotted against antibody concentration. Data was analyzed using Graphpad Prism software and EC₅₀ values were reported.

For a further experiment, the target named is T3, human TROP2-his protein (human, UniProt P09758 27-274).
T3 construct: Biotin-labelled in the ELISAs, unlabelled analyte in Biacore; also called biotin-labeled human TROP2-his protein; biotin human Trop2-his
T3 sequence: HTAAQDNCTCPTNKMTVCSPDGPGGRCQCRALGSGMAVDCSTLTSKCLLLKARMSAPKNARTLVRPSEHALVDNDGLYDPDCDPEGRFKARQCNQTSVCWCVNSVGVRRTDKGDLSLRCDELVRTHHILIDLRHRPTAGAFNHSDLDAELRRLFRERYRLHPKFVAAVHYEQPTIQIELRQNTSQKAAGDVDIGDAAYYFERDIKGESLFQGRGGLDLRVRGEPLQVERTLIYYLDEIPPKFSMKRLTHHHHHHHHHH
Nature of the experiment: capture ELISA, antibody captured on anti-mouse IgG Fc coat, biotin human TROP2-his in solution, OD(450-630). The procedure:
Plates were washed once with wash buffer (PBS+0.05% v/v Tween-20, PBST) and then blocked with 200 μl/well blocking buffer (5% w/v non-fatty milk in PBST) for 2 hours at 37° C. […] Plates containing captured anti-TROP2 antibodies were incubated with biotin-labeled human TROP2-his protein (prepared in house, SEQ ID NO: 67, 56.7 ng/mL in 2.5% w/v non-fatty milk in PBST, 100 μl/well) for 40 minutes at 37° C., washed 4 times, and incubated with streptavidin conjugated HRP (1:10000 dilution in PBST, Jackson Immuno Research, Cat #016-030-084, 100 μl/well) for 40 minutes at 37° C. After a final wash, plates were incubated with 100 μl/well ELISA substrate TMB (Innoreagents, Cat #TMB-S-002) at room temperature. The reaction was stopped in 3-10 minutes at room temperature with 50 μl/well 1M H₂SO₄, and the absorbance of each well was read on a microplate reader using dual wavelength mode with 450 nm for TMB and 630 nm as the reference wavelength. The OD (450-630) values were plotted against antibody concentration. Data was analyzed using Graphpad Prism software and EC₅₀ values were reported.

B1: mouse antibody A1E4F7D4 (antibody, V domains shown)
VH: QVQLQQSGAELAKPGTSVKMSCEASGYSFTTHWIHWMKQRPGQGLEWIGTIFPSNAYAVYNQKFRDRAIMTADRSSTTAYIQLTGLTSEDSAVYYCARASYFDYWGQGTTLTVSS
VL: DILLTQSPATLSVSPGERVTFSCRASQNIGTSIHWFQQRTTGSPRLLIKYASESISGIPSRFSGSGSGTDFTLHINSVESEDIAHYYCQHSHSWPFTFGSGTKLEIQ
notes: Mouse monoclonal IgG purified from hybridoma supernatant; also called Mouse A1E4F7D4
For the molecule B1, the EC50 stood at 481 pM in experiment [1]; 1010 pM in experiment [2]; 1480 pM in experiment [3]; 177 pM in experiment [4]; 576 pM in experiment [5]; 89.1 pM in the experiment with human TROP2-his protein.

B2: mouse antibody C1B3B12D2 (antibody, V domains shown)
VH: QVQLQQSGPELVRPGTSVKMSCKAAGYTFTKFWIGWVKQRPGHGLEWIGNIYPGGAYINYNENFKGKATLTADTFSSTAYMQLNSLTSADSAIYYCAREGSSGYWGQGTTLTVSS
VL: DIVMTQSPSSLTVTAGEKVTLSCKCSQSLLNSGTQENYLTWYQQKPGQPPKMLIYWASIREPGVPDRFTGSGSGTDFTLTINNVQAEDLAVYYCQHDYSYPFTFGSGTKLEIK
notes: Mouse monoclonal IgG purified from hybridoma supernatant
B2: the “EC50 (read off the curve)” value in experiment [1] is around 1000 pM. In addition, the EC50 in experiment [2] was found to be 636 pM; in experiment [4] it was 85 pM; with human TROP2-his protein it was 107 pM.

B3: mouse antibody A1E11A12D1 (antibody, V domains shown)
VH: QVQLQQSGAELARPGASVKLSCMASGYTFTTYGISWVRQRTGQGLEWIGQIYPGSDYSYCDEDFKGKATLTADKSSSTAYMQLSSLTSEDSAVYFCARASYFDYWGQGTTLTVSS
VL: DILLTQSPAILSVSPGERVSFSCRASQTIGTAIHWYQQRANGSPRLLIKYASESISGIPSRFSGSGSGTDFALSINTVESEDFAYYYCQQSNNWPFTFGGGTKLEIR
notes: as for B2
Turning to B3, the EC50 is 780 pM in experiment [1], 758 pM in experiment [5] and 130 pM with human TROP2-his protein.

B4: mouse antibody A1H3C5H8E12 (antibody, V domains shown)
VH: QVQLQQSGAELVRPGTSVKMSCKAAGYTFTNYWIDWVKQRPGHGLEWIGNIFPGGFYTNYNEKFKGKATLTADTSSSTAYMQLSSLTSEDSAIYYCARGGVFDYWGQGTTLTVSS
VL: DILLTQSPAILSVSPGERVSFSCRASQSIGTSIHWYQQRTNGSPRLLIKYASESISGIPSRFSGSGSGTDFTLSINSVESEDIADYYCQQSNSWPYTFGGGTKLEIK
notes: as for B2
As for B4, the EC50 in experiment [1] is 773 pM; in experiment [5], 593 pM; in the experiment with human TROP2-his protein it was 303 pM.

B5: benchmark (in house prepared sacituzumab) (antibody, human IgG1, kappa, V domains shown)
VH: SVQLQQSGSELKKPGASVKVSCKASGYTFTNYGMNWVKQAPGQGLKWMGWINTYTGEPTYTDDFKGRFAFSLDTSVSTAYLQISSLKADDTAVYFCARGGFGSSYWYFDVWGQGSLVTVSS
VL: DIQLTQSPSSLSASVGDRVSITCKASQDVSIAVAWYQQKPGKAPKLLIYSASYRYTGVPDRFSGSGSGTDFTLTISSLQPEDFAVYYCQQHYITPLTFGAGTKVEIKR
notes: also called BM; BM1
Consider B5, for which the EC50 worked out at 830 pM in experiment [1]; 1140 pM in experiment [2]; 1320 pM in experiment [3]; 191 pM in experiment [4]; 134 pM in experiment [5].

B6: huA1E4F7D4-V16 (antibody, human IgG1, kappa, V domains shown)
VH: QVQLVQSGAEVKKPGASVKVSCKASGYSFTTHWIHWVRQAPGQGLEWIGTIFPSNAYAVYNQKFRDRATMTADTSISTAYIELSRLRSDDTAVYYCARASYFDYWGQGTTVTVSS
VL: EIVLTQSPATLSLSPGERATLSCRASQNIGTSIHWFQQKPGGAPRLLIKYASESISGIPSRFSGSGSGTDFTLTISSLEPEDFAVYYCQHSHSWPFTFGQGTKLEIKR
notes: Positions of the X residues are given in the claims; also called humanized antibody huA1E4F7D4-V16
As to B6, the EC50 in experiment [3] was 596 pM.
